From PMC6909241

Target: NCp7 (nucleocapsid protein) (HIV-1, UniProt P12493 378-432)
Assay: EMSA; 7.5-300 nM NCp7, 15 nM RNA folded in 50 mM KCl; free G4 decreases from 75 nM, near complete disappearance and faint complex at 300 nM; EMSA: RNA annealed in 10 mM Li cacodylate pH 7.4, 50 mM KCl; 15 nM RNA in 8% glycerol, 30 mM Tris-HCl, 15 mM MgCl2, 50 uM ZnCl2, 37 C; 12% native gel at 4 C

GGGAGGCGUGGCCUGGGCGGGACUGGGGAGUGG (structured_RNA) [RNA U3-III+IV G4]
binding result: binds
